Data as given in US20150355184A1 (Merck Sharp & Dohme, published 2015).
Substitutions are numbered along the chain they refer to. Names may count otherwise. Each block holds one binder with its values, some of them ahead of it.

Columns and labels:
mouse PD-L1 = target: T1, mouse PD-L1 (mouse, UniProt Q9EP73 19-238, limits assumed); assay: ELISA similar to the cell-based ELISA
T1 construct: Tested in 'a similar ELISA experiment'

[1] = target: T2, human PD-L1 expressed on cells (hPD-L1-CHOK1 / human PD-L1-CHO transfectants, LOX melanoma cells, human … (human, UniProt Q9NZQ7 19-290)); assay: flow cytometry on hPD-L1 positive LOX melanoma cells, 1 microgram/ml antibody, against isotype control mouse antibody
T2 construct: Cell surface PD-L1 on transfected CHO cells, on LOX melanoma cells or in FFPE tissue and cell pellets; also called human Programmed Death Ligand 1; mature PD-L1
T2 sequence (Q9NZQ7 19-290 limits assumed): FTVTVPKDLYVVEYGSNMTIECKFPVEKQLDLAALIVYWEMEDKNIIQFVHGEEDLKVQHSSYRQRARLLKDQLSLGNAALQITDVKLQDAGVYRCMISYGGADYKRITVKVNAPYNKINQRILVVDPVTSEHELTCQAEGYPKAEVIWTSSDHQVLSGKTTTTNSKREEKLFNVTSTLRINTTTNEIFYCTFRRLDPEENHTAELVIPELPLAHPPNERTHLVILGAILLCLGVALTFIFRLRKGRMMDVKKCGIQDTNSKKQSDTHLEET
Text: Another experiment assessed the binding specificity of 20C3 and 22C3 for hPD-L1-expressing cells. HT144 cells which were known to be negative for expression of hPD-L1 by mRNA analysis (qPCR) and LOX melanoma cells known to express high levels of hPD-L1 mRNA (qPCR) were stained with 1 microgram/ml of purified mouse IgG from seven hybridomas generated in the experiments described in Example 1 above. An irrelevant isotype control mouse antibody was also used at the identical concentration. A fluorescent-labeled anti-mouse secondary antibody was used to detect the primary mouse antibodies. After staining and repeated washing, the cells were analyzed by flow cytometry, with median fluorescent intensities calculated for the population (>10,000 events collected).
20C3 and 22C3 as well as other hPD-L1 antibodies were employed as flow cytometric reagents to detect cell surface hPD-L1. The significant right shift of both the 20C3 and 22C3 histogram curves (FIG. 6A) as compared to the isotype control antibody curve reflects selective detection of hPD-L1 on the hPD-L1-positive LOX melanoma cell line.

T1 sequence (Q9EP73 19-238 limits assumed): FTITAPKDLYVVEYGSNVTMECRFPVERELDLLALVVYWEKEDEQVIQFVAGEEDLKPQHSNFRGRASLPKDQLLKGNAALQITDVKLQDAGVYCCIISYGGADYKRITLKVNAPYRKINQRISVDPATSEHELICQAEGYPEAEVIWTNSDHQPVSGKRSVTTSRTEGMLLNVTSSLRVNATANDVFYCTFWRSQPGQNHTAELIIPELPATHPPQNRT

binding result (mouse PD-L1): no binding
fold increase in MFI compared to isotype [1]: ≥ 10 fold
B1: Monoclonal Antibody MEB037.20C3 (antibody, mouse IgG1, V domains shown)
VH: QVQVQQSGAELAEPGASVKMSCKASGYIFTSYWMHWLKQRPGQGLEWIGYINPSSDYNEYSEKFMDKATLTADKASTTAYMQLISLTSEDSAVYYCARSGWLVHGDYYFDYWGQGTTLTVSS
VL: DIVMSQSPSSLAVSAGEKVTMSCKSSQSLLNSRTRKNYLAWYQQKPGQSPKLLIYWASTRESGVPDRFTGSGSGTDFTLTISSVQAEDLAVYYCQQSYDVVTFGAGTKLELK
notes: Mouse IgG1 from hybridoma; also called antibody 20C3; antibody produced by hybridoma subclone MEB037.20C3.116

binding result (mouse PD-L1): no binding
fold increase in MFI compared to isotype [1]: ≥ 10 fold
B2: Monoclonal Antibody MEB037.22C3 (antibody, V domains shown)
VH: QVHLQQSGAELAKPGASVKMSCKASGYTFTSYWIHWIKQRPGQGLEWIGYINPSSGYHEYNQKFIDKATLTADRSSSTAYMHLTSLTSEDSAVYYCARSGWLIHGDYYFDFWGQGTTLTVSS
VL: B1 VL with S22T, N31H, S32T, R33S, Q95K
modifications: N-terminal residue of the mature heavy chain is either glutamine or pyro-glutamate (pE)
notes: Mouse IgG1 from hybridoma (allotype S414R of a mouse IgG1); also called antibody 22C3; antibody produced by hybridoma subclone MEB037.22C3.138
